Measurements: US20240101645A1 (HENRY M JACKSON FOUNDATION FOR THE ADVANCEMENT OF MILITARY …, published 2024)

T1: HCoV-HKU1 spike antigens (bead panel) (HCoV-HKU1, UniProt Q5MQD0 13-1300)
T1 sequence: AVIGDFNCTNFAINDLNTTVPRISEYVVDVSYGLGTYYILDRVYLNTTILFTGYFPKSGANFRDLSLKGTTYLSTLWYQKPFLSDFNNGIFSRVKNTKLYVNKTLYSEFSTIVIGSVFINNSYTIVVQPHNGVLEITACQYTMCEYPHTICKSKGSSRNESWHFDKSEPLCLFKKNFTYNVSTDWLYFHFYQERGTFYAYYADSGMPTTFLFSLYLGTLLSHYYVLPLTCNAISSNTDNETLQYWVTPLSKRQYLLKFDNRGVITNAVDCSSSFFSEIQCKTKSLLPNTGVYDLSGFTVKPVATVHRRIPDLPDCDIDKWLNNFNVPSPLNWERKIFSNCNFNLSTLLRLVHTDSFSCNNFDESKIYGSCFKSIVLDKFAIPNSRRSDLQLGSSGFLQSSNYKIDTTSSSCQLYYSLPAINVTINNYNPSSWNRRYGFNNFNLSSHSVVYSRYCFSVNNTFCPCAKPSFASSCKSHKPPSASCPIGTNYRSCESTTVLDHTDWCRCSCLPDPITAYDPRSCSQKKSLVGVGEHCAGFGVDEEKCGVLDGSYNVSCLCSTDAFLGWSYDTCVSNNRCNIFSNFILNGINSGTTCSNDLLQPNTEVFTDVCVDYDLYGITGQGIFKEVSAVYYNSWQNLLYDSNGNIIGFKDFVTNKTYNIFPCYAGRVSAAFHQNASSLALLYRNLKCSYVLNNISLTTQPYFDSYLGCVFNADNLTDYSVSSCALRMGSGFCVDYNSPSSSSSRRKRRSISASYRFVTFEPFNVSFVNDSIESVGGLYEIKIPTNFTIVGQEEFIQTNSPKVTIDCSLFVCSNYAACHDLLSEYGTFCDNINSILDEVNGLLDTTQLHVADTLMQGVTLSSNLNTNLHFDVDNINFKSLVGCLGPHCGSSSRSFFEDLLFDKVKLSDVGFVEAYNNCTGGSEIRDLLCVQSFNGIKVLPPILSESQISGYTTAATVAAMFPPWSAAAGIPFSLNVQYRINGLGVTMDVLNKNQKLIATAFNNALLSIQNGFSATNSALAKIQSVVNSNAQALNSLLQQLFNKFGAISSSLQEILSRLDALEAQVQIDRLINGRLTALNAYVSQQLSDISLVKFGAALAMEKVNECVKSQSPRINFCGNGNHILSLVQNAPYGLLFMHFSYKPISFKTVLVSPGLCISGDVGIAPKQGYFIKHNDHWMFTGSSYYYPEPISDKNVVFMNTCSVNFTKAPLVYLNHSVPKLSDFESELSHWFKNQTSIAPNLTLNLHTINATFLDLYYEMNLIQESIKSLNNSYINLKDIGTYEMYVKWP

T2: HCoV-229E spike antigens (bead panel) (HCoV-229E, UniProt P15423 16-1115)
T2 sequence: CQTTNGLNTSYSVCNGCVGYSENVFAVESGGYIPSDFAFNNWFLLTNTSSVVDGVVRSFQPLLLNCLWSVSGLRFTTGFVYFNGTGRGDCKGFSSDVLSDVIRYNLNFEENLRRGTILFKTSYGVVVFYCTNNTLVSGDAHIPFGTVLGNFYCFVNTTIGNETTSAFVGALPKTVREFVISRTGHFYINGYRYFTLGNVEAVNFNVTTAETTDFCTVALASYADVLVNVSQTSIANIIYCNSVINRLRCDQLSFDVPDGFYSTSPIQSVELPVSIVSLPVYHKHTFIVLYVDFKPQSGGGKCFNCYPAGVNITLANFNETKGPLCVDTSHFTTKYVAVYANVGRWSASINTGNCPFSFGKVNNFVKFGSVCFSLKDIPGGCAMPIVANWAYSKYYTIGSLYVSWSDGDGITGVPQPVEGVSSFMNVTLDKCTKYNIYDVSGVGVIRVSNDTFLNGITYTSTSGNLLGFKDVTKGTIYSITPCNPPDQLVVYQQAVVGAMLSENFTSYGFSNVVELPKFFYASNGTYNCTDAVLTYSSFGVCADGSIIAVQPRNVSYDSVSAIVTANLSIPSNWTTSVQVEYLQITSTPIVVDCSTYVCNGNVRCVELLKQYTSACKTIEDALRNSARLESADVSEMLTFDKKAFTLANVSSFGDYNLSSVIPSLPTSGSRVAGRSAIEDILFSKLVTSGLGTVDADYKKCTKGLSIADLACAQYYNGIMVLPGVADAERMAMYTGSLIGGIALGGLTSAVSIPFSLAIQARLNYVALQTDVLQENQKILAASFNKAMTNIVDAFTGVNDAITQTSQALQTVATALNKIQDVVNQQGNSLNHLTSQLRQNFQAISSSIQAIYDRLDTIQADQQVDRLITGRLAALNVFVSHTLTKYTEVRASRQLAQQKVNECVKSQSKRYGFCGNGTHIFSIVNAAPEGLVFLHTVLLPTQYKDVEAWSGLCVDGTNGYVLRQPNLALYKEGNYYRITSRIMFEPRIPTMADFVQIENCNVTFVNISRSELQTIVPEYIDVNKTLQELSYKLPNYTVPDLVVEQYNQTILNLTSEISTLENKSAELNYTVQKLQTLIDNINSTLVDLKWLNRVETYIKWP


Columns and labels:
[1] = biological target: T1, HCoV-HKU1 spike antigens (bead panel); assay: multiplex bead assay
[2] = biological target: T2, HCoV-229E spike antigens (bead panel); assay: multiplex bead assay
[3] = biological target: SARS-CoV-2 S on pseudovirions (Wuhan Hu-1 / IL1/2020, last 18 amino acids removed) (SARS-CoV-2, UniProt P0DTC2 14-1273); assay: cell-based or functional assay

Binder | binding result [1] | binding result [2] | Mean IC50, pSV neutralization [3] [µg/ml] | Mean IC80, pSV neutralization [3] [µg/ml]
COV_2093 (antibody, V domains shown, human IgG1) VH: EVQLVESGGGLVQPGGSLRLSCAASGFMFNRFWMSWVRQAPGKGLEWVTNIKQDGSEKNYVDSVKGRFTISRDNAKNSLYLQMNSLRAEDTAVYYCARDGLYYDFRSPSPFYGMDVWGQGTTVTVSS VL: DIQMTQSPSSLSASVGDRVTITCRASQSISSYLNWYQHKSGKAPKLLIYAASRLQSGVPSRFSGSGSGTDFTLTIVSLQPEDLATYYCQQSYSTPRTFGGGTKVEIKR | no binding | no binding | ≥ 25 | ≥ 25
COV_1170 (antibody, V domains shown, human IgG1) VH: QVQLVESGGGVVQPGRSLRLSCAASGFTFSTYAMHWVRQAPGKGLEWVALISYDGSNKYYADSVKGRFTISRDNSKNTLDLQMNSLRAEDTAVYYCARSLGGYRTGFDYWGQGTLVTVSS VL: DIQLTQSPSFLSASVGDRVTITCRASQGISSYLAWYQQKPGKAPKLLIYAASTLQSGVPSRFSGSGSGTEFTLTISSLQPEDFATYYCQQLNSYPPFTFGPGTKVDIKR | no binding | no binding | 0.2 | ≥ 25
COV_2143 (antibody, V domains shown, human IgG1) VH: EVQLVESGGGVVQPGRSLRLSCAASGFTFNSFAMLWVRQAPGKGLEWVALFSYDGSNKYYADSVKGRFTISRDNSKNTLYLQMNNLRAVDTAVYYCARASPYDINGYYLHRIAFDIWGQGTMVTVSS VL: QSVLMQPPSVSGAPGQRVTISCTGSSSNIGAGYDVHWYQQLPGTAPKLLMYGNSNRPSGVPDRFSGSKSGTSASLAITGLQAEDEADYYCQSYDSGLSGWVFGGGTKLTVLG | no binding | no binding | ≥ 25 | ≥ 25
COV_2123 (antibody, V domains shown, human IgG1) VH: EVQLVESGGGVVQPGRSLRLSCAASGFTFSSYAMHWVRQAPGKGLEWVAVLSYDGSNKYNADSVKGRFTISRDNSKNTLYLQMNSLRVEDTAMYYCARDGVSVTMVRGVIGPLCDYWGQGTLVTVSS VL: not shown | no binding | – | – | 0.03
COV_1151 (antibody, V domains shown, human IgG1) VH: QVQVQQWGAGLLKPSETLSLTCAVYGGSFNNYYWSWIRQPPGKGLEWIGEINHSGSTNYNPSLMSRVTISVDTSKNQFSLKLTSVTAADTAVYFCARGLPVTTFFSSYYGMDVWGQGTTVTVSS VL: EIVLTQSPGTLSLSPGERATLSCRASQSVSRTYLAWYQQKPGQAPRLLIYGASSRATGIPDRFSGSGSGTDFTLTISRLEPEDFAVYYCQHYGSSPWTFGQGTKVEIRR | no binding | no binding | ≥ 25 | ≥ 25
COV_1172 (antibody, V domains shown, human IgG1) VH: QVQLQESGPGLVKPSETLSLTCTVSGGSIRSYYWSWIRQPPGKGLEWIGYIYYSGSTNYSPSLKSRVTISVDTSKNQFSLKLNSVTAADTAVYYCARRGLGYCSGDSCSNAFDIWGQGTMVTVSS VL: DIQMTQSPSSLSASVGDRVTITCRASQSISSYLNWYQQKPGRAPELLIYDASSLQSGVPSGFSGSGSGTDFTLTISSLQPEDFATYYCQQSYSTPFTFGPGTKVDIKR | no binding | no binding | ≥ 25 | ≥ 25
COV_2077 (antibody, V domains shown, human IgG1) VH: QVQLQESGPGLVKPSETLSLTCTVSGGSISSYSWSWIRQPPGKGLEWIGYIYYSGSTNYNPSLKSRVTISVDTSKNQFSLKLSSVTAADTAVYYCARESMGRYSLELRQPESAFDYWGRGTLVTVSS VL: not shown | no binding | no binding | ≥ 25 | ≥ 25
COV_2032 (antibody, V domains shown, human IgG1) VH: EVQLVESGGGLVQPGGSLRLSCAASGFTFTTYWMHWVRQAPGKGLVWVSRIKTDGSSTNYADSVKGRFTISRDNAKNMLYLQMNSLRAEDTAVYYCAREGPVSIVYFDYWGQGTLVTVSS VL: not shown | no binding | no binding | – | –
COV_1025 (antibody, V domains shown, human IgG1) VH: QVQLVESGGGVVQPGRSLRLSCAASGFTFNTYAMHWVRQAPGKGLEWVAIISYDGGNKYYADSMKGRFTISRDNSKNTLYLQMNSLRAEDTAVYYCARARTGNYYYGMDVWGQGTTVTVSS VL: not shown | no binding | no binding | – | –
COV_2048 (antibody, V domains shown, human IgG1) VH: QVQLQESGPGLVKPSETLSLTCTVSGGSISNTSYYWGWIRQPPGKGLEWIGSIYRSGSTYYNPSLKSRVTISIDTSKNQFTLKLSSVTAADTAVYYCARDYYGDYSAKPMEYWGQGTLVTVSS VL: QSALTQPRSVSGSPGQSVTISCTGTSSDVGGYNYVSWYQQHPGKAPKLLIYDVSKRPSGVPDRFSGSKSGNTASLTISGLQAEDEADYYCCSYAGSYVVFGGGAKLTVLG | no binding | no binding | 20.3 | ≥ 25
COV_1144 (antibody, V domains shown, human IgG1) VH: EVQLVESGGGLVQPGGSLRLSCAASGFTFRSFWMSWVRQAPGKGLEWVANIKEDASEKHYVDPVKGRFTISRDNAKNSLYLQLNSLRAEDMAVYYCARVGRGYCTNGLCYTAFEYWGQGTLVTVSS VL: DIQMTQSPSSLSASVGDRVTITCRTSQSISNYLNWYQQKPGKAPKLLIYAASSLQSGVPSRFSGSGSGTDFTLTISSLQPEDFATYYCQQSYSTAWTFGQGTKVEIRR | no binding | no binding | ≥ 25 | ≥ 25
COV_1166 (antibody, V domains shown, human IgG1) VH: EVQLVESGGGLVQPGGSLRLSCAVSGFTFRSFWMSWVRQTPGKGLEWVANIKEDGSEKYYVDSVKGRFTISRDNAKNSLYLQMNSLRAEDTAVYYCAREGRWELLGFAFDIWGQGTMVTVSS VL: not shown | no binding | no binding | ≥ 25 | ≥ 25
